Source: the nanobody polyreactivity screen of Harvey et al. (2022)

Test: yeast display, Sf9 membrane polyspecificity reagent, FACS + sequencing; frameworks hold sequencing errors
Summary of the method: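 In a synthetic yeast display library (Saccharomyces cerevisiae BJ5465), nanobody expression was induced with galactose for 36–48 hours. FACS gates were set low and high (top ~1%) using anti-HA fluorescence for expression and streptavidin fluorescence for binding of the Sf9 membrane reagent. Each polyreactivity label is drawn from the gate of origin.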

| Sequence | polyreactivity (PSR sort gate) |
| --- | --- |
| QVQLVESGGGLVQAGGSLRLSCAASGSTFLRYAMGWYRQAPGKERELVAAISLSGGRTHYADSVKGRFTISRDNAKNTVYLQMNSLKPEDTAVYYCAARNTGPVQYYYWGQGTQVTVSS | low polyreactivity |
| QVQLVESGGGLVQAGGSLRLSCAASGRTFHVYAMGWYRQAPGKERELVAAITWSGDSTYYADSVKGRFTISRDNAKNTVYLQMNSLNTEDTAVYYCAASKFWKYDYWGQGTQVTVSS | low polyreactivity |
| QVQLVESGGGLVQAGGSLRLSCAASGRIFSYYTMGWYRQAPGKERELVAAITASDGDTYYADSVKGRFTISRDNAKNTVYLQMNSLKPEDTAVYYCNAELFSVNGYDYWGQGTQVTVSS | low polyreactivity |
| QVQLVESGGGLVQAGGSLRLSCAASGIIFAWYAMGWYRQAPGKERELVAAISYSGGTTYYADSVKGRFTISRDNAKNTVYLQMNSLKPEDTAVYYCAARLHHFFTYDYWGQGTQVTVSS | low polyreactivity |
| QVQHVESGGGLEQARGSLRLTCAASGRTFRYYAMAWYRQAPGKERELVASISDGGSTNYADSVNGRFTITRDNAKNTVYLQMNRLKPEDTAVYYCNSKCYVWYLYDEFGYWGQGTQVTVSS | low polyreactivity |
| QVKLLESGGGLVQAGGSLRLTCAASGSTFPPYAMGWYRQAPGTESELVAAISYRDTGTYYADSVKGRFTISRDNAKYTVYLQMNSLKPEDTAVYYCATLGYFSASRTDYDYWGQGTQVTVSS | low polyreactivity |
| QVQLQESGGGLVQAGGSLRLSCAASGTISSSDAMGWYRQAPGKEREFVATIASGTTTYYADSVKGSFTISRDNAENSVYLQTNSLKPEDTAVYYCAAPTIQIYPFYYWGQGTQVTVSS | high polyreactivity |
| QVQLVESGGGLVQAGGSLRLSCAASGGIISSYVMGWYRQAPGKERELVAAISRSGGSTYYADSVKGRFTISRDNAKNTVYLQMNSLKPEDTAVYFCAAVLQTRYNYWGQGTQVTVSS | high polyreactivity |
| QVQLVESGGGLVQAGGSLRLSCAASGSIFQVYAMGWYRQAPGKERELVAAISGGGSSTYYADSVKGRFTISRDNAKNTVYLQMNSLKPEDTAVYYCAAAYSWYDNNRYDYWGQGTQVTVSS | low polyreactivity |
| QVQLVESGGGLVQAGGSLRLSCAASGRIFYSYAMGWYRQAPGKERELVAALYSDGSTDYADSVKGRFTISRDNAKNTVYLQMNSLTPEDTAVYFCAADWGWRYVLPVGWFRYGYWGQGTQVTVSS | low polyreactivity |
| QVQLVESGGGLVQAGGSLRLSCAASGRTSGGYAMGWYRQAPGKERELVATITQSGGRTYYADSVKGRFTISRDNAKNTVYLQMNSLKPEDTAVYYCAAQYGRTYYSRREYWGQGTQVTVSS | high polyreactivity |
| QVQLVESAGGLVQAGGSLRLSCAASGRIFYLYAMGWYRQAPGQERELVARITSGSGTYYADSVKGRFTISRDNAKNTVYLQMNSLKPEDTGVYYCAAREPGVCFVGHYTGLDYWGQGTQVTVSS | low polyreactivity |
| QVQLVESGGGLVQAGGSLRLSCAASGSIFDNYAMGWYRQAPGKERELVAAITSSGNTSYADSVKGRFTISRDNAKNTVYLQMNSLKPEDTAVYYCNADSQVKYTYNNHFDYWGQGTQVTVSS | low polyreactivity |
| QVQLVESGGGIVQAGGRLRLRCAASGFTFGRYAMGWYRQEPGKEREFVAAITWSGGGTYYADSVKGRFTISRDNAKNTVYLQMNSLKPEDTAVYYCAADRRAYGGGYLGQGTQVTVSS | high polyreactivity |
| QVQLVESGGRLVQAGGSLPLSCAASGFIFRYYAMGWYRQAPGKERELVAAIDYSGGSTNYADSVKGRFTISRDNAKNTVYLQMNSLKPEDTAVYYCNAEYTWHRGYDYWGQGTQVTVSS | low polyreactivity |
| QVQLVESGGGLVQAGGSLRLSCAASGSTFIDYAMGWYRQAPGKEREFVAGISSGDSTDYADSVKGRFTISRDNAKNTVYLQMNSLKPEDTAVYYCNADWNPTERWFYWYTPLGYDYWGQGTQVTVSS | low polyreactivity |
| QVQLVESGGGLVQAGGSHRLSCAASGLILGINAKGWYRQAPGTERELVAAISSSGGRTSYADSVKGRFTISRDNGKNTVYLQMNSLNPEDTAVYYCAKRRTTYSHYDYWGHGTQVTVSS | low polyreactivity |
| QVQLEESGGGLVQAGGSLRLSCAASGITFYYNDMGWYRQAPGKERELVAAISSGGTTNYADSVKGRFTISRDNAKNTFYLAMNSLKPEDTAVYYCATGYAEPEWDPFVSDYDYWGQGTQVTVSS | low polyreactivity |
| QVQLEESGGGLVQAGGSLRVSCAASGSILIPNAMGWYRQAPGKERELVASISKSGGSTYYADSVKGRFTISRDTAKNTVYLQMNSLKPEDTAVYYCAAAFVSVRKRYGYWGQGTQVTVSS | high polyreactivity |
| QVQLVESGGGLVQAGGSLRLSCAASGRIFSFNTMGWYRQAPGKERELVAAITSSSARTYYADSVKGRFTISRDNAKNTVYLQMNSLKPEDTAVYYCAADSTLSRYDYWGQGTQVTVSS | high polyreactivity |
| QVQLVESGGGLVQAGGSLRLSCAASGFIFGYYTMGWYRQAPGKERELVASISSRGGSTFYADSVKGRFTISRDNAKNTVYLQMNSLKPEDTAVYYCAVRRGVYYYPYYYWGQGTQVTVSS | high polyreactivity |
| QVQLEESGGGLVQAGGSLRLICAASGGTISKYAMGWYRQAPGTEMELVAAITYSSGSTYYADSVKGRFTISRDNAKNTVYLQMNSLKPEDTAVYYCAARSGLYWWRFDYWGQGTLVTVSS | high polyreactivity |

| Sequence | polyreactivity (PSR sort gate) |
| --- | --- |
| QVQLVESGGGLVQAGGSLRLSCAASGSTFESNAMGWSRPAPGKEREFVAAITSGGSTDYADSVKGRFKISRDNAKNTVYLQMNSLKPEDTAVYYCAKGTFDLHYRKRYNYWGQGTQVTVSS | low polyreactivity |
| QVQLVESGGGLVQAGGSLRLSCAASGSISGRNTMGWYRQAPGKERELVAAISWSGGSTYYADSVKGRFTISRDNAKNTVYLQMNSLKPEDTAVYYCAARNWRGVGGGVGRYGYWGQGTQVTVSS | high polyreactivity |
| QVQLVESGGGLVQAGCSLRLSCAASGRIFLVNAMGWYRQAPGKERELVAAISYRSGRTYYADSVKGRFTISRDNAKNTVYLQMNSLKPEDTAVYYCAAYTNVADMEYWGQGTQVTVSS | high polyreactivity |
| QVQLVESGGGLVQAGGSLRLNCAASGITCEYYAMGWYREAPGKERDLVAAISWSGGSTYYADSVKGRFTNSRDNANNTVYLQINSLKTEDTAVYDFYAVGFTYLDLYGYWGQGTQLTVSS | high polyreactivity |
| QVHVVESGGGLVQAGGSLRLSCAASGSSFYHYAMGWYRQAPGKERELVAAISGSGGSTYYADSVKGRFTISRDNAKNTVYLQMNSLKPEDTAVYYCAADTSRYHYTRYFFDSDYWGQGTQVTVSS | low polyreactivity |
| QVQLVESGGGLVQAGGSLRLSCAASGSIFRRYALGWYRQAPGKERELVAAISYSGGSTYYADSVKGRFTISRDNAKNTVYLQMNSLKPEDTAVYYCAVVTRKGLYDYWGQGTQVTGSS | high polyreactivity |
| QVQLVESGGCLVQAGGRLRLSCAASGRTFTGYTMGWYRQAPGKEREFVAAIRKSGGSTYYADSVKGRFTISRDNAKNTVYLQMNSLKPEDTAVYYCASRYRYYYTRYDYWGQGTQVTVSS | high polyreactivity |
| QVQLVESGRGLVQAGGSLRLSCAPSGLNFVRYAMGWYRQAPGKERELVARITSRGTSTYYADSVKGRFTISRDNAKNTVYLQMNSLKPEDTAVYYCIKFRSFRDKTRYDYWGQGTQVTVSS | low polyreactivity |
| QGQLVESGGGLVQAGGSLRLSCAASGISLKYAMGWYRQAPGKERELVASISSRGTSTYYADSVKGRFTISRDNAMNTVYLQMNSLKPEDTAVYYCNTVPPYWWGYWYKGDHWGQGTQGTVSS | high polyreactivity |
| QVQLVESGGGLVQAGGSLRLSCAASGSIFDVNAMGWYRQAPGKERELVAAITSSGGSTYYADSVKGRFTISRDNAKNTVYLQMNSLKPVDTAVYYCAAYSLYTMYWGQGTQVTVSS | low polyreactivity |
| QVQLVESGGGLVQAGGSLRLSCAASGSIFGWYAMGWYRQAPGKERELVATISSGGSTSYADSVKGRFTISRDNAKNTVYLQMKSLKPEDTAVYYCAADIYPDWIYLLYGYWGQGTQVTVSS | low polyreactivity |
| QVQLVESGGGLVQAGGSLRLSCAASGSTFLDYAMGWYRQAPGKERELVAGINSGGSTNYADSVKGRFTISRDNAKNTVYLQMNSLKPEDTAVYYCAADRVGNEYDYWGQGTQVTVSS | low polyreactivity |
| QVQLVESGGGLVQAGGSLRLSCAASGSTFYGYAMGSYRQAPGKERELVAAISYSGSSTYYADSVKGRFTISRDNAKNTVYLQMNSLKPEDTAVFYCAVDDTHPFGPDGGGDYWGQCTQVTVSS | low polyreactivity |
| QVQLVESGGGLVQAGGSLRLSCAASGFTNAMGWYRQAPGKERELVAAISYSGDSTNYADSVKGRFTISRDNAKNTVYLQINSVKPEDTAVYYCNASSPYDYDWGQGTHVTVSS | low polyreactivity |
| QVQLVESGGGLVQAGGSLRLSCAASGITFLPYAMGWYRQAPGKERELVAAITRGGGSTYADSVKGRFTISRDNAKYTVYLQMKSLKPEDTAVYYCAKRLGRVSWYEDYDYWGQGTEVTVSS | low polyreactivity |
| QVQLVESGGGLVQAGGSLRLSCAASGRIFDVNAMGWYRQAPGKERELVAAITDSDGSTYYADSVKGRFTISRDNAKNTVYLQMNSLKPEDTAVYYCAATQEPVTPQPYGYWGQATQVTVSS | low polyreactivity |
| QVQLVESGGGLVQARGSLRLSCAASGRIFWSNAMGWYRQAPGKERELVAAISYSGDSTYYADSVKGRFTISRDNAKNTVYIQMKSLKPEDTAVYYCTAVGHRSYRYDYWGQGTQVTVSS | high polyreactivity |
| QVQLVESGGGLVQAGGSLRLSCAASGRIFYKYAMGWYRQAPGKERELVAGISRRGGTTNYADSVKGRFTNSRDNAKNTVYLQMNSLKPEDTAVYYCAVRPLYDRRYTAVRRYDYWGQGTQVTVSS | high polyreactivity |
| QVQLVESGGGLVQAGGSLRLSCAASGRIVVPYAMGWYRQAPGKERELVAAITSGGSTYYADSVKGRFTISRDNAKNTVYLQMNSLKPEDTAVYYCAATSRRSSETYYFWGQGTQVTVSS | high polyreactivity |
| QVQLVESGGGLVQAGCSLRLSCAASGSIFKQNTMGWYRQAPGKERELVAAISSGGSTYYADSVKGRFTISRDNAKNTVYLQMNSLKPEDTAVYYCAAVTVIGGEYDYWGQGTQVTVSS | low polyreactivity |
| QVQLVETGGGLVQAGGILLLSCAASRIIFPWYTMGWYRQAPGKERELVAAINYSSGDTYADSVKGRFTISRDNAKNTVYLQMNSLKPEDTAVYYCDAEDPEYATYWYKYGYWGLGTQVTVSS | low polyreactivity |
